Target: Recombinant human PDGF-B (human) (UniProt P01127)

inhibition of PDGF-B stimulated PDGFR-β phosphorylation, BHK-21/PDGFR-β cells: 16%
Substance: MBP-GCN4-Prodomain

From patent publication US20250388637A1
